Experimental data reported in the DeepSol protein solubility set.

Assay: soluble on expression in E. coli; label from the status in PepcDB or PDB records

Sequence | soluble on expression in E. coli
MGSDKIHHHHHHMLSKDPRLYAFRDDLADKRFETEITAQRFIQGEKKRVNTAVAGLFKENNKKSEKQTECLLGEELLIFEQGKTMSWGQSLKDGYVGYIDTTILCTSAIKQTHIVSVPRTFQYLQADLRGPMEYPLSMGSKVSVVDETEVRGTIYAILESGKAIITRHLSPIGRVYEDYVTVAETLIHTPYLWGGVSGFGIDCSGLVQLSMMMTGKMVLRDTDMQQKTIGRVLTDSDKLKRGDLVFWNGHVAIMIDHENIIHANGYSMDVMIEPLEEAVTRIAKKYQYPIEKRRPIQEM | not soluble
MPDSPVDVKTQSRLTPPTMPPPPTTQGAPRTSSFTPTTLTNGTSHSPTALNGAPSPPNGFSNGPSSSSSSSLANQQLPPACGARQLSKLKRFLTTLQQFGNDISPEIGERVRTLVLGLVNSTLTIEEFHSKLQEATNFPLRPFVIPFLKANLPLLQRELLHCARLAKQNPAQYLAQHEQLLLDASTTSPVDSSELLLDVNENGKRRTPDRTKENGFDREPLHSEHPSKRPCTISPGQRYSPNNGLSYQPNGLPHPTPPPPQHYRLDDMAIAHHYRDSYRHPSHRDLRDRNRPMGLHGTRQEEMIDHRLTDREWAEEWKHLDHLLNCIMDMVEKTRRSLTVLRRCQEADREELNYWIRRYSDAEDLKKGGGSSSSHSRQQSPVNPDPVALDAHREFLHRPASGYVPEEIWKKAEEAVNEVKRQAMTELQKAVSEAERKAHDMITTERAKMERTVAEAKRQAAEDALAVINQQEDSSESCWNCGRKASETCSGCNTARYCGSFCQHKDWEKHHHICGQTLQAQQQGDTPAVSSSVTPNSGAGSPMDTPPAATPRSTTPGTPSTIETTPR | soluble
MEANMKKVIGAATATVFGLGAFTTTATAETIVTADVLNVREKPTTESKVVEKVKNGQELKVINTEDGWSKIELNGKEVFVSSEFTKDVYHVTANLLNVRTEANTDSEILGRLKKDDVIESTHQVKDGWLQFEYKGKTAYANVSFLSSTAPTEKKTEEKTKQVAKVQKSVKEKKEVKTQKVAKAKETTKAQEIVKPKEEAKVVKVKEEEKAQEIVKPKEEAKIKEEVKVKEEVKVKEEEKAQEIAKAKEEAKIKEEVKVKEEEKAQEIVKAKEEVKAKEEEKAQEIVKAKEEVKVKEEVKAKEIAKAKEEEKAREIAKAKEEEKAKEIAKAKEEEKAREIAKAKEEEKAREIAKAKEEEKAREIAKAKEEEKAREIAKAKEEERAKEASKNNIQSAKRELTVVATAYTADPSENGTYGGRVLTAMGHDLTANPNMRIIAVDPKVIPLGSKVWVEGYGEAIAGDTGSAIKGNRIDVLMGSKSKAMNWGRQTVKVKILLEHHHHHH | not soluble
MTGVGTPSPSLEWRRRVMSWTDERVSTLKKLWLDGLSASQIAKQLGGVTRNAVIGKVHRLGLSGRAAPSQPARPAFKAPRPARPAAQAMPSAPRRVTPVEAPTSVPVAAAPAPLPAFRHEEPGSATVLTLGAHMCKWPIGDPSSEGFTFCGRRSSEGPYCVEHARVAYQPQQTKKKSGGAELARSLRRYILEHHHHHH | not soluble
MSDNNQALKDAGLKVTLPRLKILEVLQQPECQHISAEELYKKLIDLGEEIGLATVYRVLNQFDDAGIVTRHHFEGGKSVFELSTQHHHDHLVCLDCGEVIEFSDDVIEQRQKEIAAKYNVQLTNHSLYLYGKCGSDGSCKDNPNAHKPKK | soluble
STYPPTPPNVTRLSDESVMLRWMVPRNDGLPIVIFKVQYRMVGKRKNWQTTNDNIPYGKPKWNSELGKSFTASVTDLKPQHTYRFRILAVYSNNDNKESNTSAKFYLQPGAALDPMPVPELLEIEEYSETAVVLHWSLASDADEHLITGYYAYYRPSSSAGEYFKATIEGAHARSFKIAPLETATMYEFKLQSFSAASASEFSALKQGRTQRPK | soluble
NQLSGLHSMEEQLAKKLQIKKCLVVQGDSDDTPWVREEMGRVAVEQLDMALTEKRNIVAVMGGSTMATVAEMMTTDFAKGRELLFVPGRGGIGEDLDNQANTICDKMATKTNTKHRVLYVPEQLGEEAYRSLLKEPAIQEGLRLVQSANAIILGIGDALAMAKRRHTGEDVLEKIIRRKAVGEAFGYYFDEQGEVVHKVPTFGLQFEDLAQIPHIIAVAGGTSKAKAIKSYMKSAPKNTILITDEGAAKSLLK | soluble
MGSDKIHHHHHHMIDFSLCEVNKFRAYGGANGNKINILYEGNSYMLKFSPVPSRNKAMSYTNGCISEYLACHIFASLGFKTQETLLGTYTDPRGKEKVVVACGDFTEGGKRLIEFAHLKNTCISSEQNGYGKELSSIMQAIDEQMLLPPDQLRDFFWDMFIADALLGNFDRHNGNWGILVDEQSKTAEIAPVYDCGSCLYPQLAAKDMGDVLNSEDEIDRRVYVFPTSSIEEDGKKISYFEFISSLRNPDCTAALKRVSARIDMEKIRMLIDKTPTLLPVQKEFYTVIISERKAKIIDYSMEKLMKLKGQDLERDEQQNGGLQFTM | not soluble
MPLEASELKPTAGPLEASELKPTAGPLEASELKPTAGPLEASELKPTAGPLEASELKPTAGPLEASELKPTAGPLEASELKPTAGMFKNAKEFVQYANKLKTLREKKLNGVSIYVCVGTGCTAKGALKVYSAFEEELKKRNLLGQVTLEKIDDDKVTLNRTGCCGRCSSGPLVKIMPYRFFYSNVAPEDVPEIVDRTVLKGEPIERLFLTDPLTGEKVPRIEDTTLFKNQDFYIMEAIGESECDSIEDYIARSGYESLVKALTSMTPEEIIETVKASGLRGRGGGGFPTGLKWEFTRKAQGDIKFVVCNGDEGDPGAFMNRTLLERDPHLVLEGMIIAGYAVGAQKGYAYIRAEYPFAVKMFKKAIEDARKLGLLGENILGTGFSFDLEVKEGAGAFVCGEETALLASIEGKRGMPRPKPPFPAQSGLWGKPTLINNVETYANIPRILRDGVENYRKRGTENSPGTKMFSVAGPLKATGIIEVEFGTTLRDIIYNICGGFVEGEEFKAVQIGGPSGACLSEDFIDMPLDYDTLKKADAMVGSGGIVVITKKTCMVEVARFFLDFTKRESCGKCVPCREGTMQAYNILEKFTHGKATYEDLKTLEHLSKTIKTASLCGLGKTAPNPILSTLKLFREEYIAHIEGECPSGMCTAFKKYVINPDICKGCGLCARSCPQNAITGERGKPYTIDQEKCVKCGLCASKCPFKAIELVAAALEHHHHHH | not soluble
MYVQGKIGLDQLAEAERLHATLCREVQQRLDIRLRAHRAVLDELNERLADKLFCNFSVFQSIPDAWAIDQIFPVMPLQRLGEEPTRRAVIQDMTCDSDGRINAYIDRQSIENTLRMHAPAPGEPYLIGFFLVGAYQEILGDMHNLFGDTHSVDVELDGAGGYTFTHTRRGDGADDLLRYVHIDPDELERLEHHHHHH | not soluble
MIQSGKIYIRGRTVVFMIIRNEQDLEGLRKIGRIVALAREEMKKEAKPGMTTKELDLIGKKVLDEHGAISAPEKEYDFPGVTCISVNEEVAHGIPGDRVLKEGDLVNVDVSAALDGYYADTGISFVLGEDEAKEKLCQAAVDAFWAAMKKVKAGSKQNQIGRAVSNFAHKNGYNVIQNLTGHGIGLSLHEAPNHILSYFDPMDNALLKDGLVIAVEPFISMKADHIIERGDDGWTFVTPDKSLVAQCEHTVVVTRGEPIILTEI | soluble
MSIFPTRDSRDLSSRRRSLIDWEFPQMALVPLDQVFDWAERSRQSLHDDIVNMHRNLFSLEPFTAMDNAFESVMKEMSAIQPREFHPELEYTQPGELDFLKDAYEVGKDGRLHFKVYFNVKNFKAEEITIKADKNKLVVRAQKSVACGDAAMSESVGRSIPLPPSVDRNHIQATITTDDVLVIEAPVNEPNYKAIKLSPEKGLAIQPSEVQERQLAVKNKEGLEIVTAEDGSKKIHLELKVDPHFAPKDVKVWAKGNKVYVHGVTGKEEKTENASHSEHREFYKAFVTPEVVDASKTQAEIVDGLMVVEAPLFK | soluble
GPLGSMKPINIQDQFLNQIRKENTYVTVFLLNGFQLRGQVKGFDNFTVLLESEGKQQLIYKHAISTFAPQKNVQLELE | soluble
MFLKAGESKTVTIDLDERAFAYWSEKYNDWHVEAGEYAIEVGVSSRDIADTVAVALDGDGKTQPLTEWSTYGEWEADPFGAKIVAAVAAAGEAGELTKLPDNAMMRMFLNPMPINSLPTLLGEGGKKIAQFMVDEYAKLAK | not soluble
MEFTAEQLSQYNGTDESKPIYVAIKGRVFDVTTGKSFYGSGGDYSMFAGKDASRALGKMSKNEEDVSPSLEGLTEKEINTLNDWETKFEAKYPVVGRVVS | soluble
MIDMFPMEKGEEQETYELIVRVFHKYVAPVYSENGVARFLGMLSPEGLSEMNNGKNSFVIVARDQSKIIGMISVINDSHIALFFVSPRYQGKGIGKNILDEAIKNCLNRNPELSAVTVSSSPNSKSFYEEAGFEVIGLEHHHHHH | soluble
MVTLEDMSQYLDEFLADARDRIDSLSNAILTLEKIVKEGGSEEEKTELINQIFRDAHTLKGTAATMGFMKLSETAHKMENIFDAIRNSQLELTPELVDLVLDFLDAIDAMVNNIEESGNEGDVDVSDLFERADEFLGGSKKEIKPEEKPKEAEKKEEKVAEEVPSAEGKVYYIKVKFQKDAPLKGVRAFLILSDLEERGEVIWTNPGREIIENGNLEGDVVEFRIVSETPKEELETVIKRHPEVESVEIVEEKKKEEAGEKAVEGKEYVVRVYFQPDTPLKGPRSYLILNDLEKIGEILSTNPSRQDIEEGNLIENKFFEVVLRTSESKEKISEILKKHPDVLNFTITEKEEEKKEEKKEAKKQPPKQPKKPPIIETPKVKISRVIKIDVGHLDKLMNLVGELVITKGRLEQIGERLGDRELFEALSTLSRLLTELQDEIMEMRLTPIAEVFNKFPRMVRDLARKMGKEVEFVMEGADIEVDRTILEKLGDALVHLLRNAVDHGIEPPEERVKLGKPRAGRVELIAKREKNHVVIIVRDDGRGIDPEKVKRKAVERGLITPEEAANLSDEEAINLIFLPGFSTADKVTDVSGRGVGMDVVKEVVKSMNGSISVQTEVGKGTTFILKLPISMAIIQALLIRVEDETYAIPINNILETIEVDPSILKTVGGKPVIVLRGEIIPVIMLHELFGLPAPQVDRFPAIIVDHGAQKVAIGVDELLHKRDIVIKSLGKFLSNVRGFAGATILGDGSVVLIIDIGGLLGGGYSG | soluble
QVQLVQSGAEVRKPGASVKVSCKASGDTFSSYAISWVRQAPGQGLEWMGGIIPIFGTANYAQAFQGRVTITANESTSTAYMELSSLRSEDTAIYYCARDNPTLLGSDYWGAGTLVTVSSASTKGPSVFPLAPCSRSTSGGTAALGCLVKDYFPEPVTVSWNSGALTSGVHTFPAVLQSSGLYSLSSVVTVPSSSLGTQTYICNVNHKPSNTKVDKRV | soluble
MGSDKIHHHHHHMPGQLKVTLLDSPNPLSKANPIHLKPLVNHCMDCRVSGLCLPTGLPVDENSCLGALIGPRMRIRKGAALFNANDPLTMLYALRCGSFKTSLNTAEGQGVVINFWMPGDVIGLDAIATEHHVCDAIALEDSEVCPVPYRRLQTLAREFPDLQQSLNRLMSREIVREHGRVLMLCNLTAEQRLASFLVGLSRRFVSRGYSAHGFMLRMSREDMASYLGLRLETVCRSVARLRALGIVDLHGRLVEILDMPALMALEQGGGECEAKGP | not soluble
MGSDKIHHHHHHAAVLSGCEFNEDFCIRNGELVAWCDFSGIRETPPVPEERHIIAFPSGMDIPSGEQMTFTQDTLRQSIPQGEYQFLFYTGNYEVSDIRDYHEARLMARTDTLEGEVYISGVQKFCCSAGFSQRLEYQRPKRVPITPSAFVQRLNIQINVSGNITPLAGLQGTLTGISTGRYLVSRERTGNASVTSLFSRKPETDRWKTSLYAFGFNPAAENILSVKIEMDGKDSVFNEEQKVDLTPYLRGFDSDELSLELDLHIGKELTIGEPVVIPDWEDIPETELPNYN | not soluble
AHHHHHHGSAKLKEPIIAINFKTYIEATGKRALEIAKAAEKVYKETGVTIVVAPQLVDLRMIAESVEIPVFAQHIDPIKPGSHTGHVLPEAVKEAGAVGTLLNHSENRMILADLEAAIRRAEEVGLMTMVCSNNPAVSAAVAALNPDYVAVEPPELIGTGIPVSKAKPEVITNTVELVKKVNPEVKVLCGAGISTGEDVKKAIELGTVGVLLASGVTKAKDPEKAIWDLVSGIIKE | soluble
